The results in this text go back to PMC5620733, “Aptamer-Based Single-Step Assay by the Fluorescence Enhancement on Electroless Plated Nano Au Substrate”.

The series has as its target thrombin (UniProt P00734;P00734 328-363;364-622). The series is described as follows: fluorescence decrease on chitosan-coated Au nanostructure (aptamer release); 10 ug/mL thrombin, 15 min; smaller signal change than 15mer, ascribed to retention on chitosan; 20 mM Tris-HCl pH 7.4, 20 mM MgCl2; chitosan-coated (1000 Da) Au nanostructure blocked with 1% BSA; 15 min; temperature not stated.

On to CACTGTGGTTGGTGTGGTTGG (ssDNA) [TBA 21mer (5'-extended)], for which the binding result was “binds”.
